Source: paper PMC8703390, “Humanization, Radiolabeling and Biodistribution Studies of an IgG1-Type Antibody Targeting Uncomplexed PSA for Theranostic Applications” (Pharmaceuticals, 2021)

B1: murine 5A10 monoclonal IgG1 (antibody, V domains shown)
VH: EVQLVESGPGILQPSQTLSLTCSFSGFSLSTTGMGVSWIRQPSGKGLEWLAHLYWDEDKRYNPSLKSRLTISEDSSRNQVFLKITSVGPADSATYYCARKGYYGYFDYWGQGTALTVSS
VL: DIVMTQSQKFMSTSVGDRVSVTCKASQNVNTDVAWYQQKPGQSPKALIFSTSYRSSGVPDRFTGSGSGTDFTLTITNVQSEDLAEYFCQQYSNYPLTFGAGTKVDLN
notes: heavy chain variable domain of m5A10; murine IgG1 heavy chain constant region; light chain variable domain of m5A10; light chain constant region; Murine IgG1; also called m5A10; parental murine antibody m5A10; source: provided by the University of Turku (Finland), prepared as previously described [8]
B2: murine 5A10 conjugated with p-SCN-Bn-CHX-A''-DTPA (antibody, V domains shown)
VH: B1 VH
VL: B1 VL
notes: as the heavy chain variable domain of m2; murine IgG1 heavy chain constant region, as in m2; as the light chain variable domain of m2; as the light chain constant region of m2; Murine IgG1; also called m5A10-DTPA; DTPA-m5A10; source: provided by the University of Turku (Finland); conjugated with p-SCN-Bn-CHX-A''-DTPA and separated from free chelate on a NAP-5 column
B3: humanized 5A10 conjugated with p-SCN-Bn-CHX-A''-DTPA (antibody, V domains shown)
VH: QVTLKESGPALVKPTQTLTLTCTFSGFSLSTTGMGVSWIRQPPGKALEWLAHIYWDDDKRYSTSLKTRLTISEDSSKNQVVLTMTNMDPVDTATYYCARKGYYGYFDYWGQGTLVTVSS
VL: DIQMTQSPSSLSASVGDRVTVTCRASQNVNTDVAWYQQKPGKAPKALIFSTSYLQSGVPSRFSGSGSGTDFTLTISSLQPEDFATYYCQQYSNYPLTFGQGTKVEIK
notes: as the heavy chain variable domain of m1; IgG1 heavy chain constant region, as in m1; as the light chain variable domain of m1; as the light chain constant region of m1; not described; IgG1; 111In labelling used the 3:1 conjugate, 177Lu labelling the 12:1 conjugate; also called h5A10-DTPA; DTPA-h5A10; source: HEK293 cells, transfected; purified by Protein G chromatography; conjugated with …
B4: humanized 5A10 IgG1 (antibody, V domains shown)
VH: B3 VH
VL: B3 VL
notes: heavy chain variable domain of h5A10; IgG1 heavy chain constant region; light chain variable domain of h5A10; light chain constant region; not described, only the plasmid name p5A10VlhDhK hints at human kappa; IgG1; Light chain constant region probably human kappa (surmised from the plasmid name and the Vk1 template); also called h5A10; humanized antibody h5A10; source: HEK293 cells, transfected; …

Molecular target: T1, human kallikrein-2 (hK2) (Homo sapiens, UniProt P20151)
T1 construct: human kallikrein-2 (hK2), the human protein most similar to PSA; source: bought: Innovagen AB (ELISA)
Test: SPR; control hK2 antigen; data not shown
Details: both partners purified

T1 sequence (P20151 19-261): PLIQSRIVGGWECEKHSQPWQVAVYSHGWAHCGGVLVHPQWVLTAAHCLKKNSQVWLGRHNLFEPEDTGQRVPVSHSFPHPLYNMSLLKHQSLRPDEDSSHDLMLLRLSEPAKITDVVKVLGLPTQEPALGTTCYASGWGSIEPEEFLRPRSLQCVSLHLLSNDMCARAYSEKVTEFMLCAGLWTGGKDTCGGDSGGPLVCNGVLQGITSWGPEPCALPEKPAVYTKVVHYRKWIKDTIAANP

| Binder | binding result |
| --- | --- |
| B1 | no binding (tested: 100, 50, 25, 12.5 and 10 nM) |
| B2 | no binding (tested: 100, 50, 25, 12.5 and 10 nM) |
| B3 | no binding (tested: 100, 50, 25, 12.5 and 10 nM) |

Molecular target: T1, human kallikrein-2 (hK2)
Test: ELISA; wells coated with PSA or hK2 (100 uL at 1 ug/mL) overnight; h5A10 dilution series from 5 ug/mL in four-fold steps, 1 h at RT; detected with goat anti-human-AP and pNPP, absorbance at 405 nm
Details: both partners purified

| binding result | Binder |
| --- | --- |
| no binding (tested: 5 µg/mL) | B4 |

Molecular target: T2, prostate-specific antigen (PSA), uncomplexed free PSA (Homo sapiens, UniProt P07288)
T2 construct: prostate-specific antigen (PSA), human kallikrein; uncomplexed (free) form; also called fPSA; source: bought: Merck (ELISA)
Test: SPR; Biacore 2000; PSA immobilised on a CM4 chip by amine coupling (900-1000 RU); antibodies at 100, 50, 25, 12.5 and 10 nM in HSP-buffer flown at 30 uL/min; association 4-5 min, dissociation up to 480 min; bi-exponential fits to binding and dissociation curves; KD = Koff/Kon
Details: both partners purified

T2 sequence (P07288 25-261, one chain of several): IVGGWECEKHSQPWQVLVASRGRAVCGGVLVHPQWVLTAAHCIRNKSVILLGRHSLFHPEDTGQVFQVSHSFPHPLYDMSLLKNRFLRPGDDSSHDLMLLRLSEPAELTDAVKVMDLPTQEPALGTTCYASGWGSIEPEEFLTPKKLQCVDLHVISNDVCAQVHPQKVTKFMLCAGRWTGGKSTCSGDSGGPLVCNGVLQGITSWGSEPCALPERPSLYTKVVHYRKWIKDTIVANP

| Kd [nM] | koff [s⁻¹] | kon [M⁻¹ s⁻¹] | Binder |
| --- | --- | --- | --- |
| 0.022 | 5.4e-06 | 250000 | B1 |
| 0.023 | 6.3e-06 | 270000 | B2 |
| 0.012 | 4.8e-06 | 390000 | B3 |
| 0.0077 | 4.8e-06 | 620000 | B4 |
